Reference: the supplement of paper PMC9170038

Tested on: MS2 coat protein
Assay: apparent KD of MS2 coat protein; designed switch direction (-1 OFF switch, 1 ON switch): -1; higher = weaker reporter binding
How it was run: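 An oligonucleotide input, 200 uM small-molecule ligand, or no input was present during titration of SNAP-549-labelled MS2 coat protein, which was doubled from 0.7 or 1.5 nM to 3 µM. Designed RNA switches had been transcribed on Illumina chips by stalled E. coli RNA polymerase. Apparent KD per design is the median over clusters of curves fitted to normalised cluster fluorescence.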

[1] = input ligand: microRNA oligo, concentration not stated
[2] = Eterna round: R95, input ligand: FMN 200 uM
[3] = Eterna round: R95, input ligand: microRNA oligo, concentration not stated
[4] = Eterna round: R95, input ligand: none

| Sequence | apparent KD of MS2 coat protein (input ligand: FMN 200 uM) [nM] | apparent KD of MS2 coat protein [1] [nM] | apparent KD of MS2 coat protein (input ligand: none) [nM] | apparent KD of MS2 coat protein [2] [nM] | apparent KD of MS2 coat protein [3] [nM] | apparent KD of MS2 coat protein [4] [nM] |
| --- | --- | --- | --- | --- | --- | --- |
| UGAUCUAGCGGAGGAUAUACAUGAGGAUCACCCAUGUAGAUAACAUGACCGUAGUCGUGUAUCGUGUAGAAGGCCGCUAGAUCU [JL ENG2 3.67] (Eterna round: R96, puzzle: Exclusion NG 2) | 35 | 9.25 | 12.6 |  |  |  |
| UGAUCUAGCGGAGGAUAUACAUGAGGAUCACCCAUGUAGAUGAGUGUACCGUAGUGCACUCUUGUGUAGAAGGCCGCUAGAUCU [JL ENG2 3.56] (Eterna round: R96, puzzle: Exclusion NG 2) | 24.8 | 12.6 | 16.7 |  |  |  |
| UGAUCUAGCGGAGGAUAUACAUGAGGAUCACCCAUGUAGUGGUGACGUGCGUACAUGUCACCUGUGUAGAAGGCCGCUAGAUCU [JL ENG2 3.58] (Eterna round: R96, puzzle: Exclusion NG 2) | 20.1 | 9.65 | 14.8 |  |  |  |
| UGAUGACAUGAGGAUCACCCAUGUCAGGAUAUUGAGCUUGAGCUGAAAAGUUCGAGUUCGAGAAGGGACUGUCG [-29.6, -26.6 kcal, A 28%, 1] (Eterna round: R97, puzzle: Exclusion 1) | 28.2 |  | 29 |  |  |  |
| UGAUUGUGAGGAUAUUCUGAAUAAGGCACGGGCGUCUUAUUGAAGAAGGCACAUGAGGAUCACCCAUGUGGGUU [Eternabot (L2) Solution 90] (Eterna round: R97, puzzle: Exclusion 4) | 248 |  | 188 |  |  |  |
| UGAUUGUUUACCAGAUUAUACAUGAGGAUCACCCAUGUAGAUCCUACGUGCACGUUAUACCGCUCGUCUUAUUCCCA [Sensor-V1 #75] (Eterna round: R97, puzzle: Sensor, turn-off variant 1) | 44.6 |  | 41.2 |  |  |  |
| UGAUUGUUUACCAGGUUAUACAUGAGGAUCACCCAUGUAGAUCCUACGUGCGCGUUGUACCGCUCGUCUUAUUGCCA [Sensor-V1 #79] (Eterna round: R97, puzzle: Sensor, turn-off variant 1) | 19.5 |  | 21.3 |  |  |  |
| UGCACCUCAGGAUAUACUAGGUCCAGUAUGGCGAAAGCCGCACAUGAGGAUCACCCAUGUAGAAGGGAGGUGCA [Eternabot (L1) Solution 61] (Eterna round: R97, puzzle: Exclusion 2) | 34.1 |  | 257 |  |  |  |
| UGCAGACGAGGAUAUAAACGAUAUAACAUGAGGAUCACCCAUGUACGAUCGAAUGAUCGUUUAGAAGGCGUCUGCU [E5/10-A3] (Eterna round: R97, puzzle: Exclusion 5) | 16.1 |  | 16.2 |  |  |  |
| UGCAGACGAGGAUAUGAUAAAGAUCACAUGAGGAUCACCCAUGUACGCAGGAUACUGCGAUCAGAAGGCGUCUGCA [E5/1-A3] (Eterna round: R97, puzzle: Exclusion 5) | 16.3 |  | 13 |  |  |  |
| UGCGGAAGAGGAUAUACAUUGAAUUUGAUUCAUGUAAAACUACAUGAGGAUCACCCAUGUAGAAGGCUUUCGCU [Mat - Exclusion 2 - JL Mod - D66] (Eterna round: R97, puzzle: Exclusion 2) | 33.7 |  | 17.7 |  |  |  |
| UGCGGUUGAGGAUAUACGUAGAAGUAGAUUCAUGUAAAACUACAUGAGGAUCACCCAUGUAGAAGGCAAUCGCU [Mat - Exclusion 2 - JL Mod - D40] (Eterna round: R97, puzzle: Exclusion 2) | 193 |  | 21.5 |  |  |  |
| UGCUACGGAGGAUAUACAUGAGGAUCACCCAUGUGAUAGAUUAUGCCGAGAGGCUAGUGUAGAAGGCCGUAGCU [jl-ex3-4.14 jl mod] (Eterna round: R97, puzzle: Exclusion 3) | 683 |  | 189 |  |  |  |
| UGGAUAAUUGGAGGAUAUGCGACAUAAACCAUUGUAGAAGGCCAACAUGAGGAUCACCCAUGUGUCCCAGAGACCACAGAUCCA [Eternabot solution 9] (Eterna round: R96, puzzle: Exclusion NG 1) | 36.9 | 22.2 | 28.2 |  |  |  |
| UGGCUGCUCAGGGAGUGUGACAUGAGGAUCACCCAUGUGGUAGUAAGGAACAAGCUUUUUACACGUACUUAUAAAGC [JR_SV3TOV1_Sub011] (puzzle: Sensor v3, turn-off variant 1) |  |  |  | 157 | 135 | 296 |
| UGGUAACAUGAGGAUCACCCAUGUCAGGAUAUCAGGAAGAAGAGAGGAGAGGAGAAGAUGAGAAGGGACUAUAU [Excluse me! 11 - Jieux - Exclusion 1] (puzzle: Exclusion 1) |  |  |  | 21.6 | 19.8 | 26.2 |

| Sequence | apparent KD of MS2 coat protein (input ligand: FMN 200 uM) [nM] | apparent KD of MS2 coat protein [1] [nM] | apparent KD of MS2 coat protein (input ligand: none) [nM] | apparent KD of MS2 coat protein [2] [nM] | apparent KD of MS2 coat protein [3] [nM] | apparent KD of MS2 coat protein [4] [nM] |
| --- | --- | --- | --- | --- | --- | --- |
| UGGUAACAUGAGGAUCACCCAUGUCAGGAUAUCAGUAAGAAUAGAGGAGAGUAGAAGAUGAGAAGGGACUAUAU [Excluse me! 8 - Jieux - Exclusion 1] (puzzle: Exclusion 1) |  |  |  | 20.5 | 33.4 | 30.8 |
| UGUAACCUAGGAUAUACAUGAGGAUCACCCAUGUAAUGUAGUAUAGUGUGUGUGAGGUGUAGAAGGUGGGAUGU (Eterna round: R97, puzzle: Exclusion 3) | 60.4 |  | 60.2 |  |  |  |
| UGUACUAUGCGAGCUGACUUGCGUAGUGCAGCAGGUGAAACAUGAGGAUCACCCAUGUCCUCAUUUGCUCGUCUUAU [SL-sv3-2.02 JL mod] (Eterna round: R96, puzzle: Sensor v3, turn-off variant 2) | 45.2 | 399 | 43.1 |  |  |  |
| UGUACUAUGCGAGCUGACUUGCGUAGUGCAGCAGGUGAAACAUGAGGAUCACCCAUGUCCUCAUUUGCUCGUCUUAU [SL-sv3-2.02 JL mod] (puzzle: Sensor v3, turn-off variant 2) |  |  |  | 47.7 | 599 | 41.6 |
| UGUAUAGGAGUGAGGAUAUGGAAACUGGAAAAGGACCAGAAGGCACAUGAGGAUCACCCAUGUGGUUCUCAAGA [Eternabot (Original) Solution 50] (Eterna round: R97, puzzle: Brourd's mod of Exclusion 4) | 1210 |  | 373 |  |  |  |
| UGUCCAAUACAGGAUAUUCUCGCGUAGUAGCAAGGAGAAGGGUAGACAUGAGGAUCACCCAUGUGAUUCAUCUG [Eternabot (L2) Solution 68] (Eterna round: R97, puzzle: Exclusion 6) | 438 |  | 575 |  |  |  |
| UGUCCACAUUCCGAUACGGGACAUGAGGAUCACCCAUGUCCACAGGAUAUCGUCUUACGAGAGAUCGAGAAGGGUGGCGUGCGC [Eternabot solution 22] (Eterna round: R96, puzzle: Exclusion NG 3) | 13.1 | 9.72 | 14.1 |  |  |  |
| UGUCUUCAUAUCACAUGAGGAUCACCCAUGUUAUUCAUCUCGUAGGAUAUCGAGGUUUAUUAUUUCGAGAAGGACGUAUUGUUU [JR_ExcNG3_Sub076] (Eterna round: R96, puzzle: Exclusion NG 3) | 199 | 112 | 148 |  |  |  |
| UGUCUUGCAGGAUAUCAUGUGAUAUACAUGAGGAUCACCCAUGUUAGCCUCAUGAGCGUCUGAGAAGGGUAAGACG [Eternabot (L2) Solution 22] (Eterna round: R97, puzzle: Exclusion 5) | 131 |  | 40.1 |  |  |  |
| UGUGGACAUGAGGAUCACCCAUGUCAGCCGUGUCCACCGAGAGAGGAUAUUGGUCAACCAGGGACUAAGAAGGCUCAGAGCUGG [Eternabot solution 47] (Eterna round: R96, puzzle: Exclusion NG 3) | 30.3 | 37.4 | 46.4 |  |  |  |
| UGUUGUCGCGCAGGAUAUGAGGAUCACCCAUAUAAAGGAUAUGAAAAGAAGGUUCUGAGGAUUACCCAGAAGGGCGGGACAACU [pwkr exNG2 2xF5 2xFMN.16] (Eterna round: R96, puzzle: Exclusion NG 2) | 250 | 40.3 | 52.3 |  |  |  |
| UGUUGUCGCGCAGGAUAUGAGGAUCACCCAUAUAGAGGAUAUGAAAAGAAGGCUCUGAGGAUUACCCAGAAGGGCGGGACAACU [pwkr exNG2 2xF5 2xFMN.21] (Eterna round: R96, puzzle: Exclusion NG 2) | 1660 | 152 | 179 |  |  |  |
| UGUUGUCGCGUAGGAUAUUGUCAACAGGCAGUAGGAUAUGCGAAAGCAGAAGGACCGCCAACAGGCGAGAAGGACGGGACAACU [pwkr exNG2 2xF7 2xFMN.6] (Eterna round: R96, puzzle: Exclusion NG 2) | 44.3 | 35.6 | 138 |  |  |  |
| UGUUGUUACGCAGGAUAUGCAUGAGGAUCACCCAUGCAAUUAGAGUUAACAUGAGGAUCACCCAUGUAGAAGGGCGGGUUAACA [pwkr exNG2 2xF5 1xFMN.4] (Eterna round: R96, puzzle: Exclusion NG 2) | 82.2 | 45.8 | 57.6 |  |  |  |
| UGUUGUUACGUAGGAUAUCCACCAACAGGUGGAAGGAUAUGGAAACAGAAGGUUCGCCAACAGGCGGAGAAGGACGUGUUAACU [pwkr exNG2 2xF7 2xFMN.23] (Eterna round: R96, puzzle: Exclusion NG 2) | 2.79 | 3780 | 288 |  |  |  |
